Holding throughout (settings): both partners purified
Test [1] concerns the target T1, Recombinant human RAGE Fc chimera (human, UniProt Q15109 23-342).
T1 construct: receptor for advanced glycation end products (RAGE), human, recombinant, fused to Fc; No catalogue number printed; also called receptor for advanced glycation end products; AGER; source: bought: R&D Systems
The experiment in a line: ELISA; CAP37, neutrophil elastase, cathepsin G or Aβ1-42 (0.5 μg/well) or BSA (1000 μg/well) coated on Maxisorp plates in PBS pH 7.4; RAGE Fc chimera 0–3.3 nM in PBST with 0.1% BSA, 37°C, 70 min; bound RAGE detected with goat anti-RAGE; BSA subtracted as background for KD. Background: An ELISA detects its analyte on a solid surface through an enzyme-linked reagent.

For test [2], the target named is T2, Amyloid beta 1–42 (Aβ1–42) (UniProt P05067 672-713).
T2 construct: amyloid beta 1-42, the cut product of amyloid precursor protein (APP); numbers count on: the Aβ peptide; source: bought: Bachem (95.2% pure by HPLC), dissolved in 1 mM sodium hydroxide
The experiment in a line: ELISA; CAP37, neutrophil elastase or cathepsin G (0.5 μg/well) or BSA (1000 μg/well) coated; Aβ1-42 0–111 nM in PBST with 0.1% BSA and protease inhibitor cocktail; bound Aβ1-42 detected with anti-APP/Aβ; BSA subtracted as background for KD.

For test [3], the target named is T1, Recombinant human RAGE Fc chimera. The experiment in a line: ELISA; competition: RAGE Fc chimera coated (0.5 μg/well, 83.3 nM); Aβ1-42 (11 nM) added at the same time as CAP37 (0–2.5 μM) or neutrophil elastase (0–0.5 μM); no protease inhibitors; bound Aβ1-42 detected with anti-APP/Aβ.

T1 sequence (Q15109 23-342, change not shown): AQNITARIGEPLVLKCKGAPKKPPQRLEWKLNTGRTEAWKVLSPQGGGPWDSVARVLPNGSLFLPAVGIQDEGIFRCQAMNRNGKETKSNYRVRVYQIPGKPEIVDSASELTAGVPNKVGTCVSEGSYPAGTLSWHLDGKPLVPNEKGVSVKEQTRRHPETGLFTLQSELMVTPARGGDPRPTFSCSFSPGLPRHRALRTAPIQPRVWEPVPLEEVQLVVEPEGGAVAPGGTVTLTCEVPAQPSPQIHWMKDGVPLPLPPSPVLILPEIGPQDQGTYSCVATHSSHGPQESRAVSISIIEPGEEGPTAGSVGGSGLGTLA

B1: cathepsin G (enzyme, human, UniProt P08311 21-244, looked up)
chain: IIGGRESRPHSRPYMAYLQIQSPAGQSRCGGFLVREDFVLTAAHCWGSNINVTLGAHNIQRRENTQQHITARRAIRHPQYNQRTIQNDIMLLQLSRRVRRNRNVNPVALPRAQEGLRPGTLCTVAGWGRVSMRRGTDTLREVQLRVQRDRQCLRIFGSYDPRRQICVGDRRERKAAFKGDSGGPLLCNNVAHGIVSYGKSSGVPPEVFTRVSSFLPWIRTTMRS
notes: cathepsin G (CTSG), human, purified from neutrophils, >95% pure by SDS-PAGE; also called CG; CTSG; source: purified from human neutrophils; bought: Athens Research & Technology
Consider B1, for which the Kd in test [1] worked out at 0.45 nM; in test [2] it was 20.7 nM.

B2: cationic antimicrobial protein of 37kDa (CAP37) (natural protein, human, UniProt P20160 27-251, looked up)
chain: IVGGRKARPRQFPFLASIQNQGRHFCGGALIHARFVMTAASCFQSQNPGVSTVVLGAYDLRRRERQSRQTFSISSMSENGYDPQQNLNDLMLLQLDREANLTSSVTILPLPLQNATVEAGTRCQVAGWGSQRSGGRLSRFPRFVNVTVTPEDQCRPNNVCTGVLTRRGGICNGDGGTPLVCEGLAHGVASFSLGPCGRGPDFFTRVALFRDWIDGVLNNPGPGPA
notes: cationic antimicrobial protein of 37kDa (CAP37, encoded by AZU1), human, purified from neutrophils, >95% pure by SDS-PAGE; also called AZU1; source: purified from human neutrophils; bought: Athens Research & Technology
For the molecule B2, the Kd in test [1] amounted to 1.26 nM; in test [2] it was 37.9 nM. The IC50 – broadly, the concentration needed to halve the response being measured – in test [3] is 1280 nM.

B3: neutrophil elastase (enzyme)
chain: IVGGRRARPHAWPFMVSLQLRGGHFCGATLIAPNFVMSAAHCVANVNVRAVRVVLGAHNLSRREPTRQVFAVQRIFENGYDPVNLLNDIVILQLNGSATINANVQVAQLPAQGRRLGNGVQCLAMGWGLLGRNRGIASVLQELNVTVVTSLCRRSNVCTLVRGRQAGVCFGDSGSPLVCNGLIHGIASFVRGGCASGLYPDAFAPVAQFVNWIDSIIQ
modifications: native N-glycosylated, disulfide-bonded active enzyme from human neutrophils. Limits are not printed: the signal and activation dipeptide are removed (starts at 30), and the C-terminal propeptide is …
B3: the Kd in test [1] turned out to be 3.25 nM.

The values above are taken from article PMC5038948 (PLoS ONE, 2016).
